Target: the molecule itself
Test: SEC; BioSep-SEC-S3000 column (5-700 kDa), room temperature, 0.5 ml/min, 100 mM potassium phosphate pH 7.4; 20 µl sample at ~2 mg/ml total protein; monitored at 410 nm; sizes estimated from the Bio-Rad gel filtration standard calibration curve

B1: CYP2C9 wild-type, N-terminally truncated, His-tagged recombinant protein (enzyme, human, UniProt P11712 29-490, looked up)
chain: LPPGPTPLPVIGNILQIGIKDISKSLTNLSKVYGPVFTLYFGLKPIVVLHGYEAVKEALIDLGEEFSGRGIFPLAERANRGFGIVFSNGKKWKEIRRFSLMTLRNFGMGKRSIEDRVQEEARCLVEELRKTKASPCDPTFILGCAPCNVICSIIFHKRFDYKDQQFLNLMEKLNENIKILSSPWIQICNNFSPIIDYFPGTHNKLLKNVAFMKSYILEKVKEHQESMDMNNPQDFIDCFLMKMEKEKHNQPSEFTIESLENTAVDLFGAGTETTSTTLRYALLLLLKHPEVTAKVQEEIERVIGRNRSPCMQDRSHMPYTDAVVHEVQRYIDLLPTSLPHAVTCDIKFRNYLIPKGTTILISLTSVLHDNKEFPNPEMFDPHHFLDEGGNFKKSKYFMPFSAGKRICVGEALAGMELFLFLTSILQNFNLKSLVDPKNLDTTPVVNGFASVPPFYQLCFIPV
modifications: biotin on the BCCP tag (50 µM biotin added to facilitate biotinylation)
notes: cytochrome P450 2C9, human; Vector pBJW102.2 (pQE-80L with BCCP and a glycine-serine linker 3' to the His-6 tag); also called CYP2C9 WT; source: E. coli DH5α, purified (Protino Ni-TED His-tag purification)
Q: For B1, which “stoichiometry N” value is on record?
A: The value was about 8 subunits.

Source: article PMC6082832, “Effects of polymorphic variation on the thermostability of heterogenous populations of CYP3A4 and CYP2C9 enzymes in solution” (Scientific Reports, 2018)
